Test results published in the supplement of paper PMC9170038.

Legend:
MS2 coat protein [1] = assay: apparent KD of MS2 coat protein, switch ON state; designed switch direction (-1 OFF switch, 1 ON switch): -1; higher = weaker reporter binding; conditions: FMN input: 0 or 200 uM; Eterna round: R93 (includes R88 designs)
In short: (§1)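 Binding of SNAP-549-labelled MS2 coat protein was measured on designed RNA switches transcribed on-chip from Illumina sequencing clusters. The protein rose in twofold steps from 0.7 or 1.5 nM to 3 µM, with 0.8–1.5 h per step early on and 10–20 min per step later, in 100 mM Tris-HCl pH 7.5, 80 mM KCl, 4 mM MgCl2, without or with constant ligand. Each design's apparent KD is the median of fits to its normalised cluster binding curves.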

MS2 coat protein [2] = assay: apparent KD of MS2 coat protein, switch OFF state (with FMN for OFF switches, without FMN for ON switches); designed switch direction (-1 OFF switch, 1 ON switch): -1; higher = weaker reporter binding; conditions: FMN input: 0 or 200 uM; Eterna round: R93 (includes R88 designs)
In short: as §1

Sequence	apparent KD of MS2 coat protein (MS2 coat protein [1]) [nM]	apparent KD of MS2 coat protein (MS2 coat protein [2]) [nM]
AGCUUCAGAGGAUAUACUUGAGUGAUAAAAGUCUGAUAACUACAUGAGGAUCACCCAUGUAGAAGGCUGUAGCA [Ex2 Design 168: Sub-opt 32]	19.1	46
AGCUAGUCAGGAUAUACGAACAUGUCAAAAGACGUGAGAGAACAUGAGGAUCACCCAUGUAGAAGGGACUAGCA [Mat - Exclusion 2 - JL-Eli mod - D47]	18.7	13.1
AAUAGUGGAGGAUAUACAUGAGGAUCACCCAUGUAGAAAGGAAGUGUAUAUAUGGCGUGUAGAAGGCCAAAUAA [Mai Tai 3 ala Nando]	32.3	30.3
AAAGAUACAGGAUAUACAUGAGGAUCACCCAUGUGGAACCAAAAAUGGGAAAAAGAAAGUAGAAGGGUAUAAAA [Ex 3 May 37]	38.8	35.7
AAAAAGGCAGGAUAUACAUGAGGAUCACCCAUGUAAAAAAAAAAAAAAGGGAAAAAAAGUAGAAGGGCCAAAAA [Along]	31.1	53.4
CCUGUGUGAGGAUAUGGUAUAAAAAAAAAAAAAUAGCUCCUCCAGAAGGCACAUGAGGAUCACCCAUGUCGUGG [Jolly's Folly 17 - Jieux - Exclusion 4]	26.9	57.1
AAAAAGUCAGGAUAUACAAAAGUGCGAAAGCACAAAAAGGGACAUGAGGAUCACCCAUGUAGAAGGGACAAGAA [Married to this design, 61% 4]	73.3	124
AAGAACUGAGGAUAUACAAAAUAAAAGAAAAGAAAGAAAGAACAUGAGGAUCACCCAUGUAGAAGGCAGAAGAA [Sekhemre Khutawy Sobekhotep I]	27.6	19.7
UUAGAACAUGAGGAUCACCCAUGUGAGGAUAUGCAAUACUAGCGACAAGAUCGUUAUAGCAGAAGGCACGUAGU [JR_EXc001_Sub807]	38.6	64.5
AGAAAACAUGAGGAUCACCCAUGUCAGGAUAUCUAAAAGAAAAGAAAAGAAAGAAGAAGGAGAAGGGACAAGAA [Djoser]	21.2	21.8
ACUUGACAUGAGGAUCACCCAUGUCAGGAUAUAGUAGGACAAAUAAAUAAAAGUUCUACUAGAAGGGAUAUGGG [Design 20: G-U+ 4]	20.7	36.5
AAGGAUCGAGGAUAUACAUAGAUACAGAUACAUGUAGAACUACAUGAGGAUCACCCAUGUAGAAGGCGAUCAUA [AJ 30]	23.9	56.3
AGGUAGUCAGGAUAUACAAACAUGUCAAAAGACGUGAAAAAACAUGAGGAUCACCCAUGUAGAAGGGACUACCA [Mat - Exclusion 2 - JL mod - D21]	18	16.3
AAGAAGGUAGGAUAUACAUGAGGAUCACCCAUGUAAAAGAAAGAGGGAAAAGAGAAAAGUAGAAGGACCAAGAA [Ankhmakis]	34.3	50.1
AAGAAGCAAGGAUAUACAUGAGGAUCACCCAUGUAAAAGAAAGAGGGAAAAGAGAAAAGUAGAAGGUGCAAGAA [Ptolemy VI Philometor]	22.6	54.4
AAGAAGUGAGGAUAUGUCUGUGCGAAAAAAAAAAAGUGCAGACAGAAGGCACAUGAGGAUCACCCAUGUGGGAA [Florian 65% 6]	76.6	87.2
AAGAUCAGAGGAUAUACAUAAGGUGAUGGAGACAUCGCCAAACAUGAGGAUCACCCAUGUAGAAGGCUGAUCAA [Mat - Exclusion 2 - JL mod - D62]	36.8	49.7
AGGGAACAUGAGGAUCACCCAUGUGAGGAUAUACAAAAGAAAAGAAAAGAAAGAAGAAGUAGAAGGUACAAGAA [Neferka]	23.9	43.9
AUAGUACAUGAGGAUCACCCAUGUCAGGAUAUUGGAUAUGACAUGAAAAAAAUGUUAACGAGAAGGGACUAUAA [EX1 Malc#17]	58.6	80.7
AAAAAGUCAGGAUAUGCGAAGGCGUCUGAUAGACGAGGCUAGCAGAAGGGACAUGAGGAUCACCCAUGUGAAAA [Mat - Mod of Nando 64% 1]	57.9	143
